According to the nanobody polyreactivity screen of Harvey et al. (2022):

Assay: yeast display, Sf9 membrane polyspecificity reagent, FACS + sequencing; frameworks hold sequencing errors
Summary of the method: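 Genes from sorted yeast were amplified by colony PCR, read by MiSeq 2 × 250 sequencing and filtered on CDR length. These cells carried a synthetic nanobody library in Saccharomyces cerevisiae BJ5465 and were sorted by FACS into low and high (top ~1%) gates on anti-HA and streptavidin fluorescence. Polyreactivity is labelled according to the gate of origin.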

Sequence | polyreactivity (PSR sort gate)
QVQLVESGGGLVQAGGSLRLSCAASGITFVKNAMGWYRQAPGKERELVARIRIGGSTSYADSVKGRFTFSRDNAKNTVYLQMNSLKPEDTAVYYCARYAGRLSYRYEYWGQGTQVTVSS | high polyreactivity
QVQLVESGGGLVQAGGSLRLSCAATGSIFTAYDMGWYRQAPGKERELVAAINVSAGTTYYADSVKGRFTISRDNAKNTVYLQMNSLKPEDTAVYYCATDRSPTPYTRENIYDYWGQGTQVTVSS | low polyreactivity
QVQLVESGGGLVQAGGSLRLSCAASGFTFKSYGMGWYRQAPGKERELVAAISKSGGRTYYADSVKGRFTISRDNAKNTVYLQMNSLKPEDTAVYYCAARVYGVDGYGYWGQGTQVTVSS | high polyreactivity
QVQHVESGGGLVQAGGSLRLSCAASGIIFSEYAMGWYRLAPGKERELVAVISRSGGRTYYADSVKGRFTISRDNAKNTVYFQMNSLKPEDTAVYYCAVVHKTFTGDYWGQGTQVTVSS | high polyreactivity
QVQLVESGGGLVQAGGSLRLSCAASGRIFADYAMGWYRQAPGKERELVADIRQSGGRTYYADSVKGRFTISRDNAKNTVYFQINRLKPEDTAVYYCATDYGSWGDYSGKYDYWGQGTQVTVSS | low polyreactivity
QVQLVESGGGLVQAGGSRRLSCAASGSTFYGYAMGWYRQAPGKEREFVAAITTSGGSTYYADSVKGRFTISRDNAKNTVYLQMNSLKPEDTAVYYCAADGFYYDDGYWGQGTQVTVSS | low polyreactivity
QVQLVESGGGLVQAGGSLRLSCAASGSTFSPNAMGWYRQAPGKERELVAAITYRGANTYYADSVKGRFTISRDNEKNTVYLQMNSLKPEDNAVYYCAAEYAYHHVGFGYWGQGTQVTVSS | low polyreactivity
QVQLVESGGGLVQAGGSLRLSCAATGLTFYLNAMGWYRQAPGKEREFVAAINYSVGSTYYADSVKGRFTISRDNAKNTVYLQMNSLKPEDTAVFYCAADGYLYFKVDNEYWGQGTQVTVSS | low polyreactivity
QVQLLESGGGLVQAGGSLRLSCAASGSIFYRYAMGWYRQAPGKEREFVAAISGSGSSTYYADSVKGRFTISRDNAKNTVYLQMNSLKPEDTAVYYCAARWRYYGSFDYWGQGTQVTVSS | high polyreactivity
QVQLVESGGGLVQAGGSLRLSCAASGRIFYRYAMGWYRQAPGKERELVATISRSGGSTNYADSVKGRFTISRDNAKNTVYLQMNSLKPEDTAVYYCNALYLSTRSGDYWGQGTQVTVSS | high polyreactivity
QVQLVESGGGLVQAGGSLRLSCAASGSTFTSYAMGWYRQAPGKERELVASIRSTSGRTYYADSVKGRFTISRDNAKNTVYLQMNSLKPEDTAVYYCAAATYGTWWTYADNPYDYWGQGTQVTVSS | high polyreactivity
QVQLVESGGGLVQAGGSLRLSCAASGSTFYPNAMGWSRQAPGKERELVAAISRGTRTKYADSVKGRFTISRDNAKNTVYLQMKSLKPEDTAVYYCAADTGTGLDWGQGTQVTVSS | high polyreactivity
QVQLVESAAGLVQAGASLRLSCAPSGRIYRYYAMGWYRQAPGKDRELVAAISSSGGSTYYADSVKGRFSISRDNAKNTVYLQKNSLKPEDTAVYYCAARKASGRFGYWGQGTQVTVSS | high polyreactivity
QVQLVESGGGLVQAGGSLRLSCAASGSIFDSNAMGWYRQAPGKERELVAAIDDSGATTYYADSVKGRFTISPDNAKNTVYLQLNSLKPEDTAVYYCAAETYTGSLAYYREYYYWGQGTQVTVSS | low polyreactivity
QVQLVESGGGLVQAGGSLRLSCAASGSTFQSYAMGWYRQAPGKERELVAAISTSDTDRTYYADSVKGRFTISRDNAKNTVYLQMNSLKPEDTAVYYCNAEGTYRPEYDSWGQGTQVTVSS | low polyreactivity
QVQLVESGGGLVQAGGSLRLSCAASGFTFSAYAMGWYRQAPGKERELVASITRSGGSTYYADSVKGRFTISRDNAKNTVYLQMNCLKPEDTAVFYCAKSDRPWWGYYYQFDYWGQGTQVSVSS | low polyreactivity

Sequence | polyreactivity (PSR sort gate)
QVQLVESGGGLVQAGGSLRLSCAASGSTFTPYAMGWYRQAPGKEREFVARISWTGGSTYYADSVKGRFTISRDIAKNTVYLQMNSLKPEDTAVYYCNADRYRWYDHGYYYWGQGTQVTVSS | high polyreactivity
QVQLVESGGGLVQAGGSLRLSCAASGFTFSENTMGWYRQAPGKERELVADIDSGGSTYYADSVKGRFTISRDNAKNTVYLQMNSLKPEVTAVYYCAIDYHVVGGQTFLFEYDYWGQGTQVTVSS | low polyreactivity
QVQLVESGGGLVQAGGSLRLSCAASGSTFHGYDMGWYRQAPGKERELVAAITSSGDDTYYADSEKGRFTISLDNAKNTVYLQMNSLKPEDTAVYYCAAEYTEGYTHDYWGQGTQVTVSS | low polyreactivity
QVQLVESGGGLVQAGGSLRLSCAASGLTFGWNAMGWYRQAPGKERESVAAISYNGVSTHYADSVKGRFTISRDNAKNTVYLQMNSLKPEDTAVYYCAARALTWPYGGTAPRLYNYWGQGTQVTVSS | low polyreactivity
QVQLVESGGGLVQAGGSLRLSCAASGRILLTYAMGWYRQAPGKERELVAAISSDSRTYYADSVKGRFTISRDNAKNTVYLQMNSLKPEDTAVYYCVRRRYKYDYWGQGTQVTVSS | low polyreactivity
QVQLVESGGGLVQAGGSLRLSCAASGYTDYAMGWYRQAPGKERELVATITSGDNTNYADSVKGRFTISRDNAKNTVDLQMNSLKPEDTAVYYCAAEYGMHYGIDYWGQGTQVTVSS | low polyreactivity
QVQLVESGGGLVQAGGSLRLSCAASGYILYANTMGWYRQAPGKERELVAAISGGGSTNYADSVKGRFTISRDNAKNTVYLQMNSLKPEDTAVYYCAVKTNQAGYDYWGQGTQVTVSS | low polyreactivity
QVQLVESGGGLVQAGGSLRLSCAASGFISSRYAMGWYRQAPGKERELVASINWSGGSTYYADSVKGRFTISRDNAKNTVYLQMNSLKPEDTAVYYCNRVLDPTNKYYYWGQGTQVTVSS | high polyreactivity
QVQLVESGGGLVQAGGSLRLSCAASGSTFIVYAMGWYRQAPGKERELVASITWRGGSTYYADSVKGRFTISRDNAKNTVYFQMNSLKPEDTAVYYCARGYETTNYQKFYITDDGDYWGQGTQVTVSS | low polyreactivity
QVQLVESGGGLVQAGGSLRLSCAASGRTFSIYTMGWYRQAPGKERELVASIRRSSGSTYYADSVKGRFTISRDNAKNTVYLQMNSLKPEDTAVYYCAADRIRLDSRKFDYWGQGTQVTVSS | low polyreactivity
QVQLVESGGGLVQAGGSLRLSCAASGSIFYYNAMGWYRQAPGKERELVATIRTSGGSTYYADSVKGRFTISRDNAKNTVYLQMNSLKPEDTAVYYCAARDLRKLYSRYPYYYWGQGTQVTVSS | high polyreactivity
QVQLVESGGGLVQAGGSLRLSCAASGRIFWDNAMGWYRQAPGKERELVAAISDSVVITYYADSVKGRFTISRDNAKNTVYLQMNSLKPEDTAVYYCAADKRGSVYLSSFWMDYWGQGTQVTVSS | low polyreactivity
QDQLVESVGGLVQAGVSLPLSCAASGIIFLYNDMGWFRQARGKAREFVATLSRSGGSTYYADSVKGRVTISRDNAKNTVYLQMNRLKPEETAVYYCAADEDSGYGYWGQGTQVTVTS | low polyreactivity
QVQLVESGGGLVQAGGSLRLSCAASGRTFPRNAMGWYRQAPGKERELVAAISYGGGRTYYADSVKGRFTISRDNAKNTVYLQMNSLKPEDTAVYYCATVRRTDYPLGMDYWGQGTQVTVSS | high polyreactivity
QVQLVESGGGLVQAGGSLRLSCAASGFTFGYYTMGWYRQAPGKERELVAAISWSGDSTYYADSVKGRFTISRDNAKNNVYLQMNSLKPEDTAVYYCAAAVYGSWPDYDYWGQGTQVTVSS | low polyreactivity
QVQLVDSGGGLVQAGGSLRLSCAASGITFSGYDMGWYRQAPWKERELVADITISTGSTYYADSVKGRYTISRDNAKNSVYLQMNSLKPEDTAVYYCAADWTGGFYTWYVIPYDYWGQGTQVTVSS | low polyreactivity
